Assay results: patent US20220000982A1 (Novo Nordisk, published 2022)
*1 amine or outer side, *2 acyl side, *3 side chain or, on linkers, in order; H or OH if unused. Where no end group is shown, it is not given here. Side-chain parts run from the residue outwards. [ ]: non-standard residue; d: D form. The star is where a group is joined. C20 diacid = O=C(O)CCCCCCCCCCCCCCCCCCC(=O)*; C18 diacid = O=C(O)CCCCCCCCCCCCCCCCC(=O)*; γGlu = O=C(O)[C@H](CCC(=O)[*:2])N[*:1]; Trx = NC[C@H]1CC[C@H](C(=O)O)CC1; Nle = CCCC[C@H](N)C(=O)O; AEEA = NCCOCCOCC(=O)O; Aib = CC(C)(N)C(=O)O

Assays:
Experiment in all cases: cell-based or functional assay
human GLP-1 receptor = human GLP-1 receptor (human, UniProt P43220 24-463)
human glucagon receptor = human glucagon receptor (human, UniProt P47871 26-477)
Chain of human glucagon receptor (P47871 26-477): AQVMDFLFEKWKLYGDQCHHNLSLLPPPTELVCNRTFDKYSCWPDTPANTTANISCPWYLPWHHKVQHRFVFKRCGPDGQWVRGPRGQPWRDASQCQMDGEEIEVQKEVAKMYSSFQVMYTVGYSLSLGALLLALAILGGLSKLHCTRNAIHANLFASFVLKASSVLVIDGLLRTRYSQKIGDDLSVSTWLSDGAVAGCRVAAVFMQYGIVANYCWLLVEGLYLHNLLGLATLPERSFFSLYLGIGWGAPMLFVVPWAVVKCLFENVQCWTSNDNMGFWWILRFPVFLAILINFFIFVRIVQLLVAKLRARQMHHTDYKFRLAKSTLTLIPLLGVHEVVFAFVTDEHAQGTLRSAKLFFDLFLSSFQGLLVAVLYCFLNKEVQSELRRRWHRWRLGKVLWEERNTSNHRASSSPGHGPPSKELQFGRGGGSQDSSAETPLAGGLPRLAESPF

human GIP receptor = biological target: T1, human GIP receptor (human, UniProt P48546 22-466)
T1 sequence (looked up): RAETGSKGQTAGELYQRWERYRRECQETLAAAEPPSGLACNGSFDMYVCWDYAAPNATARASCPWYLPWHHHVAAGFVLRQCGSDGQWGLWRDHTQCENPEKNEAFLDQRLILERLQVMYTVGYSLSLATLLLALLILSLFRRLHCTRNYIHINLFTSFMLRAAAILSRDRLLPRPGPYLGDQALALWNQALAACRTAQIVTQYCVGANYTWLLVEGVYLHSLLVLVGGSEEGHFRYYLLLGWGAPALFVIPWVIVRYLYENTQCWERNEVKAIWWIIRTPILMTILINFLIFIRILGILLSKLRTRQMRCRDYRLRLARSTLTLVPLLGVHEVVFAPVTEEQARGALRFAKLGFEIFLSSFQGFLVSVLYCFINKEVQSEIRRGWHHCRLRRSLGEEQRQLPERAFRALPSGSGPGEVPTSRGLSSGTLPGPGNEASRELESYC

“hGIP(1-42) (from UniProt P09681 52-93) (ligand)” was tested, and the EC50, hGLP-1-R CRE Luc, 0.2% HSA (human GLP-1 receptor) was > 100 nM and the EC50, hGcg-R CRE Luc, 0.2% HSA (human glucagon receptor) was > 100 nM.

In the case of Ac-YAEGTFISDYSIA[Nle]DKIRQQDFVK([γGlu-γGlu-γGlu-C18 diacid])WLLAQKG, the “EC50, hGIP-R CRE Luc, 0.2% HSA” value (human GIP receptor) is reported as 0.546 nM.

Y[Aib]EGTFISDYSIA[Nle]DAIRQQDFVK([γGlu-γGlu-γGlu-C18 diacid])WLLAQKG was tested, and the “EC50, hGIP-R CRE Luc, 0.2% HSA” value (human GIP receptor) was 0.0725 nM.

With Y[Aib]EGTFISDYSIA[Nle]DKIRQ[Aib]DFVK([γGlu-γGlu-γGlu-C18 diacid])WLLAQKG the “EC50, hGIP-R CRE Luc, 0.2% HSA” value (human GIP receptor) was 0.0094 nM.

For Ac-[dY]AEGTFISDYSIA[Nle]DKIRQQDFVK([AEEA-AEEA-γGlu-γGlu-γGlu-C18 diacid])WLLAQKG, the “EC50, hGIP-R CRE Luc, 0.2% HSA” value (human GIP receptor) was 0.0431 nM.

In the case of Ac-[dY]AEGTFISDYSIA[Nle]DKIHQEDFVK([γGlu-γGlu-γGlu-Trx-C20 diacid])WLLAQKG, the “EC50, hGIP-R CRE Luc, 0.2% HSA” value (human GIP receptor) is reported as 0.547 nM.

In the case of Ac-[dY]AEGTFISDYSIA[Nle]DKIRQQDFVK([γGlu-γGlu-γGlu-Trx-C20 diacid])WLLAQKG, the “EC50, hGIP-R CRE Luc, 0.2% HSA” value (human GIP receptor) is reported as 0.18 nM.

For Ac-[dY]AEGTFISDYSIA[Nle]DKIHQQDFVK([γGlu-γGlu-γGlu-Trx-C20 diacid])WLLAQKP-NH2, the “EC50, hGIP-R CRE Luc, 0.2% HSA” value (human GIP receptor) was 0.0712 nM.

With HAEGTFTSDVSSYLEGQAAKEFIAWLVKGRG (ligand) [hGLP-1(7-37)] the “EC50, hGIP-R CRE Luc, 0.2% HSA” value (human GIP receptor) was > 100 nM.

For Ac-[dY][Aib]EGTFISDYSIA[Nle]DKIHQQDFVK([γGlu-γGlu-γGlu-Trx-C20 diacid])WLLAQKP-NH2, the “EC50, hGIP-R CRE Luc, 0.2% HSA” value (human GIP receptor) was 0.0384 nM.

Ac-[dY]AEGTFISDYSIA[Nle]DKIRQQDFVK([γGlu-γGlu-γGlu-C18 diacid])WLLAQKG was tested, and the “EC50, hGIP-R CRE Luc, 0.2% HSA” value (human GIP receptor) was 0.0489 nM.

Y[Aib]EGTFISDYSIA[Nle]DKIHQQDFVK([γGlu-γGlu-γGlu-Trx-C20 diacid])WLLAQKP-NH2 was tested, and the “EC50, hGIP-R CRE Luc, 0.2% HSA” value (human GIP receptor) was 0.0675 nM.

For Y[Aib]EGTFISDYSIA[Nle]DKIHQQDFVK([γGlu-γGlu-γGlu-C18 diacid])WLLAQKGKENDWKHNITQ, the “EC50, hGIP-R CRE Luc, 0.2% HSA” value (human GIP receptor) was 0.0213 nM, the “EC50, hGLP-1-R CRE Luc, 1% HSA (*)” value (human GLP-1 receptor) was > 100 nM and the “EC50, hGcg-R CRE Luc, 1% HSA (*)” value (human glucagon receptor) was > 100 nM.

In the case of Y[Aib]EGTFISDYSIA[Nle]DKIHQQDFVK([AEEA-AEEA-γGlu-C18 diacid])WLLAQKGKEEDWKHNITQ, the “EC50, hGIP-R CRE Luc, 0.2% HSA” value (human GIP receptor) is reported as 0.00545 nM, the “EC50, hGLP-1-R CRE Luc, 0.2% HSA” value (human GLP-1 receptor) is reported as > 100 nM and the “EC50, hGcg-R CRE Luc, 0.2% HSA” value (human glucagon receptor) is reported as > 100 nM.

For Ac-[dY]AEGTFISDYSIA[Nle]DKIRQQDFVK([γGlu-γGlu-γGlu-Trx-C20 diacid])WLLAQKP-NH2, the “EC50, hGIP-R CRE Luc, 0.2% HSA” value (human GIP receptor) was 0.0762 nM.

Ac-[dY]AEGTFISDYSIADDKIRQEDFVK([AEEA-AEEA-γGlu-C18 diacid])WLLAQKG was tested, and the “EC50, hGIP-R CRE Luc, 0.2% HSA” value (human GIP receptor) was 0.0915 nM.

Y[Aib]EGTFISDYSIA[Nle]DKIRQQDFVK([AEEA-AEEA-γGlu-Trx-C20 diacid])WLLAQKG was tested, and the “EC50, hGIP-R CRE Luc, 0.2% HSA” value (human GIP receptor) was 0.0447 nM.

Ac-[dY]AEGTFISDYSIA[Nle]DKIHQ[Aib]DFVK([γGlu-γGlu-γGlu-Trx-C20 diacid])WLLAQKG was tested, and the “EC50, hGIP-R CRE Luc, 0.2% HSA” value (human GIP receptor) was 0.153 nM.

Y[Aib]EGTFISDYSIA[Nle]DKIHQEDFVK([γGlu-γGlu-γGlu-γGlu-C18 diacid])WLLAQKG was tested, and the “EC50, hGIP-R CRE Luc, 0.2% HSA” value (human GIP receptor) was 0.158 nM.

In the case of YAEGTFISDYSIAMDKIHQQDFVNWLLAQKG (ligand) [hGIP(1-31)], the “EC50, hGIP-R CRE Luc, 0.2% HSA” value (human GIP receptor) is reported as 0.00224 nM.

Y[Aib]EGTFISDYSIA[Nle]DKIHQQDFVK([γGlu-γGlu-γGlu-C18 diacid])WLLAQKGKEEDWKHNITQ was tested, and the “EC50, hGIP-R CRE Luc, 0.2% HSA” value (human GIP receptor) was 0.009 nM, the “EC50, hGLP-1-R CRE Luc, 0.2% HSA” value (human GLP-1 receptor) was > 100 nM and the “EC50, hGcg-R CRE Luc, 0.2% HSA” value (human glucagon receptor) was > 100 nM.

For Ac-[dY]AEGTFISDYSIA[Nle]DKIRQQDFVK([AEEA-AEEA-γGlu-C18 diacid])WLLAQKG, the “EC50, hGIP-R CRE Luc, 0.2% HSA” value (human GIP receptor) was 0.0304 nM.

Y[Aib]EGTFISDYSIA[Nle]DKIRQQDFVK([γGlu-γGlu-γGlu-C18 diacid])WLLAQKGKENDWKHNITQ was tested, and the “EC50, hGIP-R CRE Luc, 0.2% HSA” value (human GIP receptor) was 0.0201 nM, the “EC50, hGLP-1-R CRE Luc, 1% HSA (*)” value (human GLP-1 receptor) was > 100 nM and the “EC50, hGcg-R CRE Luc, 1% HSA (*)” value (human glucagon receptor) was > 100 nM.

For Y[Aib]EGTFISDYSIA[Nle]DKIRQEDFVK([γGlu-γGlu-γGlu-C18 diacid])WLLAQKG, the “EC50, hGIP-R CRE Luc, 0.2% HSA” value (human GIP receptor) was 0.0629 nM.

Y[Aib]EGTFISDYSIA[Nle]DKIHQQDFVK([γGlu-γGlu-γGlu-C18 diacid])WLLAQKG was tested, and the “EC50, hGIP-R CRE Luc, 0.2% HSA” value (human GIP receptor) was 0.0499 nM, the “EC50, hGLP-1-R CRE Luc, 1% HSA (*)” value (human GLP-1 receptor) was > 100 nM and the “EC50, hGcg-R CRE Luc, 1% HSA (*)” value (human glucagon receptor) was > 100 nM.

With Y[Aib]EGTFISDYSIA[Nle]DKIRQEDFVK([γGlu-γGlu-γGlu-Trx-C20 diacid])WLLAQKG the “EC50, hGIP-R CRE Luc, 0.2% HSA” value (human GIP receptor) was 0.252 nM.

Ac-[dY]AEGTFISDYSIA[Nle]DKIRQEDFVK([AEEA-AEEA-γGlu-C18 diacid])WLLAQKG was tested, and the “EC50, hGIP-R CRE Luc, 0.2% HSA” value (human GIP receptor) was 0.025 nM.

Y[Aib]EGTFISDYSIA[Nle]DKIRQ[Aib]DFVK([γGlu-γGlu-γGlu-Trx-C20 diacid])WLLAQKG was tested, and the “EC50, hGIP-R CRE Luc, 0.2% HSA” value (human GIP receptor) was 0.0712 nM.

For Y[Aib]EGTFISDYSIA[Nle]DKIRQQDFVK([γGlu-γGlu-γGlu-Trx-C20 diacid])WLLAQKG, the “EC50, hGIP-R CRE Luc, 0.2% HSA” value (human GIP receptor) was 0.0721 nM.

With Y[Aib]EGTFISDYSIA[Nle]DKIRQQDFVK([AEEA-AEEA-γGlu-Trx-C20 diacid])WLLAQKGKEEDWKHNITQ the “EC50, hGIP-R CRE Luc, 0.2% HSA” value (human GIP receptor) was 0.014 nM.

In the case of Ac-[dY][Aib]EGTFISDYSIA[Nle]DKIRQQDFVK([γGlu-γGlu-γGlu-γGlu-Trx-C20 diacid])WLLAQKP-NH2, the “EC50, hGIP-R CRE Luc, 0.2% HSA” value (human GIP receptor) is reported as 0.0261 nM, the “EC50, hGLP-1-R CRE Luc, 1% HSA (*)” value (human GLP-1 receptor) is reported as > 10 nM and the “EC50, hGcg-R CRE Luc, 1% HSA (*)” value (human glucagon receptor) is reported as > 100 nM.

For Y[Aib]EGTFISDYSIA[Nle]DKIHQEDFVK([γGlu-γGlu-γGlu-γGlu-Trx-C20 diacid])WLLAQKG, the “EC50, hGIP-R CRE Luc, 0.2% HSA” value (human GIP receptor) was 0.81 nM.

With Y[Aib]EGTFISDYSIA[Nle]DKIHQQDFVK([AEEA-AEEA-γGlu-C18 diacid])WLLAQKGKEDDWKHNITQ the “EC50, hGIP-R CRE Luc, 0.2% HSA” value (human GIP receptor) was 0.00597 nM, the “EC50, hGLP-1-R CRE Luc, 0.2% HSA” value (human GLP-1 receptor) was > 100 nM and the “EC50, hGcg-R CRE Luc, 0.2% HSA” value (human glucagon receptor) was > 100 nM.

With Y[Aib]EGTFISDYSIA[Nle]DKIRQQDFVK([AEEA-AEEA-γGlu-C18 diacid])WLLAQKGKEEDWKHNITQ the “EC50, hGIP-R CRE Luc, 0.2% HSA” value (human GIP receptor) was 0.00412 nM, the “EC50, hGLP-1-R CRE Luc, 0.2% HSA” value (human GLP-1 receptor) was > 100 nM and the “EC50, hGcg-R CRE Luc, 0.2% HSA” value (human glucagon receptor) was > 100 nM.

With Y[Aib]EGTFISDYSIA[Nle]DAIRQQDFVK([γGlu-γGlu-γGlu-Trx-C20 diacid])WLLAQKG the “EC50, hGIP-R CRE Luc, 0.2% HSA” value (human GIP receptor) was 0.266 nM.

In the case of Ac-[dY][Aib]EGTFISDYSIA[Nle]DKIRQQDFVK([γGlu-γGlu-γGlu-C18 diacid])WLLAQKP-NH2, the “EC50, hGIP-R CRE Luc, 0.2% HSA” value (human GIP receptor) is reported as 0.0212 nM and the “EC50, hGLP-1-R CRE Luc, 0.2% HSA” value (human GLP-1 receptor) is reported as > 100 nM.

Y[Aib]EGTFISDYSIA[Nle]DKIRQQDFVK([γGlu-γGlu-γGlu-Trx-C20 diacid])WLLAQKP-NH2 was tested, and the “EC50, hGIP-R CRE Luc, 0.2% HSA” value (human GIP receptor) was 0.0615 nM.

Y[Aib]EGTFISDYSIA[Nle]DKIRQQDFVK([γGlu-γGlu-γGlu-Trx-C20 diacid])WLLAQKGKEEDWKHNITQ was tested, and the “EC50, hGIP-R CRE Luc, 0.2% HSA” value (human GIP receptor) was 0.022 nM.
